{"source": "paper PMC6041441", "about": "“WRKY1 acts as a key component improving resistance against Alternaria solani in wild tomato, Solanum arcanum Peralta”", "binders": {"B1": {"name": "4xW-box (dsDNA)", "DNA 1": "AAAAAATTGACCAAATTGACTCCAATTGACCAAATTGACCAAACACCACCTCCCACCTATAAAAAA", "DNA 2": "TTTTTTATAGGTGGGAGGTGGTGTTTGGTCAATTTGGTCAATTGGAGTCAATTTGGTCAATTTTTT"}, "B2": {"name": "mutated 4xW-box (4xmWbox) (dsDNA)", "DNA 1": "B1 DNA 1 with G9T, G18T, G28T, G37T", "DNA 2": "B1 DNA 2 with C30A, C39A, C49A, C58A"}}, "molecular_target": "T1, rSaWRKY1 (Solanum arcanum Peralta (accession not …, UniProt A0A1P8NTG4 1-410))", "T1 sequence": "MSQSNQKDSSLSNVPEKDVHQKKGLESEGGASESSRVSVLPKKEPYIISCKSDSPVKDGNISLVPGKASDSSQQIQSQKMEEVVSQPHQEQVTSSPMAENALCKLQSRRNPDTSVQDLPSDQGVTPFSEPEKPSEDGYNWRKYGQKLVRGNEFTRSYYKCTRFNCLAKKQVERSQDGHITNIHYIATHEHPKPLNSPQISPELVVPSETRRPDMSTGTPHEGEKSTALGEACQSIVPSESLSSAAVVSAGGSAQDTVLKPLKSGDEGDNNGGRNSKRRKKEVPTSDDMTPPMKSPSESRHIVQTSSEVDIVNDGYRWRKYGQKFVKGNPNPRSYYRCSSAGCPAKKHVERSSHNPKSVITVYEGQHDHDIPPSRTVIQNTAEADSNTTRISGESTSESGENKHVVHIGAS", "test": "EMSA; 10 ug protein; 10x binding buffer: 0.10 mg/mL BSA, 1 mM DTT, 10 mM EDTA, 50% glycerol, 1 M KCl, 100 mM Tris-HCl pH 7.5 (stock as printed; working dilution not stated); 25 C, 30 min; 2% agarose gel, GelRed", "settings": "protein: recombinant; recombinant protein 62.6 kDa; label: none (GelRed stain); blunt", "note": "Substitutions are numbered along the chain they refer to.", "data": [{"binder": "B1", "values": [{"measurement": "binding result", "value": "binds"}]}, {"binder": "B2", "values": [{"measurement": "binding result", "value": "no binding"}]}]}
